Test results: patent EP4600270A1 (ImnoTech GmbH, dated 2025)

T1: human CD7 (cluster of differentiation 7) (human, UniProt P09564 26-240)
T1 construct: also called CD7 target antigen; CD7 surface marker
T1 sequence: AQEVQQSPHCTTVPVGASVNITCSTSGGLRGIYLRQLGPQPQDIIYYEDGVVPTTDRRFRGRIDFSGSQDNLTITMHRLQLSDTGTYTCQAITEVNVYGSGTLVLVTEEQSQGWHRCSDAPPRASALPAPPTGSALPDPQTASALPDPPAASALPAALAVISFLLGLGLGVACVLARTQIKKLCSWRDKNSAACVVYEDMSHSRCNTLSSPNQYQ


Target: T1, human CD7 (cluster of differentiation 7)
Experiment: flow cytometry titration on human CD8+ T cells, one-site specific binding fit

Kd | Binder
3.9 nM | SEQ ID NO 13 (VHH, Single domain antibody against human CD7; also called anti-CD7 sdAb) VHH: QVQLQESGGGLVQSGGSLRLSCAASRRIFEINVMGWYRQAPEKQRELVGTITSFGGTNYADSVKGRFTISADYAKNTMYLQMNSLNPEDTAVYYCNAHYFSNDYWGQGTQVTVSS
5.66 nM | SEQ ID NO 4 (VHH, Single domain antibody against human CD7; also called anti-CD7 sdAb) VHH: QVQLQESGGGLVQAGDSLRLSCAASGLTVSSYGMGWFRQAPGKEREFVVDISRGGGSTSYADSVKGRFTIARDNAKNTLYLQMNSLKPEDTAVYSCAARKYAHYEYWGQGTQVTVSS
11 nM | SEQ ID NO 7 (VHH, Single domain antibody against human CD7; also called anti-CD7 sdAb) VHH: QVQLQESGGGLVQAGDSLRLSCAASGLTVSMYGMGWFRQAPGKEREFVADISRGGGSTSYTDSVKGRFTISRDNAKNTLYLQMNSLKPEDTAVYSCAARKYAHYEYRGQGTQVTVSS
4.04 nM | SEQ ID NO 9 (VHH, Single domain antibody against human CD7; also called anti-CD7 sdAb) VHH: QVQLQESGGGLVQAGDSLRLSCAASGLTVSSYGMGWFRQAPGKEREFVADISRGGGSTLYADSVKGRFTISRDNGKNTLYLQINSLKPEDTAVYSCAARKYAEWDYWGQGTQVTVSS
8.16 nM | SEQ ID NO 8 (VHH, Single domain antibody against human CD7; also called anti-CD7 sdAb) VHH: QVQLQESGGGLVQTGDSLRLSCAASGLTVSSYGMGWFRQAPGKEREFVADISRGGGSTLYADSVKGRFTISRDNLKNTLYLQMNSLKPEDTAVYSCAARKYAEWNYWGQGTQVTVSS
6.34 nM | SEQ ID NO 2 (VHH, Single domain antibody against human CD7; also called anti-CD7 sdAb) VHH: QVQLQESGGGLVQAGGSLRLSCAASGRTFSDYLMGWFRQTPGKEREFVAAIYWNAGSTYYADSVKGRFTISRDNTKNTMYLQMNSLKPEDTAVYYCAAGQRGLAYARTYDYDYWGQGTQVTVSS
